Assay results published in PMC13625576.
pKd: −log10 of the molar value.

Key:
Experiment in all cases: SPR
[1] = target: 14A Fab G32R mutant (mouse)
[2] = target: 16A Fab R32G mutant (mouse)
[3] = target: 16A Fab W34F mutant (mouse)

pKd [1]	koff [1]	kon [1]	pKd [2]	koff [2]	kon [2]	pKd [3]	koff [3]	kon [3]	Substance
6.89	0.0229 s⁻¹	180000 M⁻¹ s⁻¹	6.77	0.0294 s⁻¹	174000 M⁻¹ s⁻¹	5.41	0.337 s⁻¹	86200 M⁻¹ s⁻¹	Ser-glycosylated MUC1 peptide RPAPGS(GalNAc)TAPPAHG
	0.00159 s⁻¹	314000 M⁻¹ s⁻¹	7.64	0.00823 s⁻¹	359000 M⁻¹ s⁻¹	5.91	0.09 s⁻¹	73600 M⁻¹ s⁻¹	Thr-glycosylated MUC1 peptide RPAPGST(GalNAc)APPAHG
8.35	0.00137 s⁻¹	303000 M⁻¹ s⁻¹		0.00183 s⁻¹	534000 M⁻¹ s⁻¹	5.95	0.0901 s⁻¹	79700 M⁻¹ s⁻¹	doubly glycosylated MUC1 peptide RPAPGS(GalNAc)T(GalNAc)APPAHG
6.91	0.0233 s⁻¹	191000 M⁻¹ s⁻¹	6.49	0.0532 s⁻¹	163000 M⁻¹ s⁻¹	5.46	0.295 s⁻¹	86200 M⁻¹ s⁻¹	nonglycosylated MUC1 peptide …
